Experimental data reported in PMC5797146.
“And” between values parts separate entries of the source, which are not always exact repeats. Equal entries are not always repeated.

How the values were obtained:
[1] = target: Clostridium difficile toxin A (Clostridium difficile) (UniProt P16154)
[2] = target: Clostridium difficile toxin A (Clostridium difficile) (UniProt P16154); experiment: SPR

B1: A26.8 VHH (parent) (VHH)
VHH: QVKLEESGGGLVQAGGSLRLSCAASERTFSRYPVAWFRQAPGAEREFVAVISSTGTSTYYADSVKGRFTISRDNAKVTVYLQMNNLKREDTAVYFCAVNSQRTRLQDPNEYDYWGQGTQVTVSS
B1 was tested, and the other [1] was 70 nM and 60%, the Kd [2] was 18.7 nM and the koff [2] was 0.034 s⁻¹. The kon [2] was 1.8e+06 M⁻¹ s⁻¹.
